Measurements taken from paper PMC4168798.

What was measured:
Test in all cases: fluorescence polarisation
[1] = biological target: Bcl-xL (c-myc-tagged, without the C-terminal trans-membrane region) (human)
[2] = biological target: Bfl-1 (c-myc-tagged, without the C-terminal trans-membrane region) (human)
[3] = biological target: Mcl-1 (c-myc-tagged, without the N-terminal domain and the C-terminal trans-membrane region) (human)
[4] = biological target: Bcl-2 (c-myc-tagged, without the C-terminal trans-membrane region) (human)
[5] = biological target: Bcl-w (c-myc-tagged, without the C-terminal trans-membrane region) (human)
Sequence of Bcl-w (c-myc-tagged, without the C-terminal trans-membrane region) (human) (Q92843 1-164): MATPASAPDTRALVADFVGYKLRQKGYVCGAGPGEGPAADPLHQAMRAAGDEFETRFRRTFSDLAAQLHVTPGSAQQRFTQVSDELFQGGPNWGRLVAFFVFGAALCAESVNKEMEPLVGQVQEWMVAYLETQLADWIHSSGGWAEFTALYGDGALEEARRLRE

Substance	Kd [1]	Kd [2]	Kd [3]	Kd [4]	Kd [5]
Bim 23-mer, N-terminal fluorescein (peptide)	2.6 nM	< 1 nM	< 1 nM		
Bim_A2eT, N-terminal fluorescein (peptide)	17 nM	31 nM	< 1 nM	43 nM	
Bim_A2eT, N-terminal fluorescein (peptide; other documents disagree on this pair)					39 nM
Bim_A2eT_E2gG, N-terminal fluorescein (peptide)	37 nM		1.6 nM	150 nM	
Bim_A2eT_E2gG, N-terminal fluorescein (peptide; other documents disagree on this pair)					94 nM
Bim_A2eT_F4aI, N-terminal fluorescein (peptide)	110 nM	7.9 nM	< 1 nM	150 nM	
Bim_A2eT_F4aI, N-terminal fluorescein (peptide; other documents disagree on this pair)					16 nM
Bim_A2eT_I2dM, N-terminal fluorescein (peptide)	83 nM	150 nM	< 1 nM	210 nM	
Bim_A2eT_I2dM, N-terminal fluorescein (peptide; other documents disagree on this pair)					260 nM
Bim_A2eT_I3dL, N-terminal fluorescein (peptide)	7.6 nM	120 nM	< 1 nM	37 nM	
Bim_A2eT_I3dL, N-terminal fluorescein (peptide; other documents disagree on this pair)					12 nM
